Test results taken from patent US20210155955A1, “THERAPEUTIC CONSTRUCTS FOR TREATING CANCER” (CANCER TARGETING SYSTEMS, INC., priority 2018, published 2021).

Tested on: B16F10-Red-FLuc mouse melanoma cells
Assay: B16F10-Red-FLuc experimental metastasis to the lung, N/P=4 and N/P=6 versus recombinant mIL-12 (Example 9)
Type: in vivo, C57BL/6 mice
Description: The anti-tumor effect of nanoparticles containing PEG-mIL12 and expressing mIL-12 was compared to recombinant mIL-12 protein administered subcutaneously. The experimental design was as Example 8 but nanoparticles were prepared at N/P=4 and N/P=6 ratios. Nanoparticles were dosed as before for N/P=6, however, for the N/P=4 formulation the dose was maintained at 2 mg/kg in 10 mL/kg at day 8. For dosing of the recombinant protein, 10 μg of recombinant mIL-12 (PeproTech, Rocky Hill, N.J., USA) were reconstituted in PBS to make a 100 μg/mL stock solution. Dosing of the animals was at 4 μg/kg for the initial dose (Day 5) followed by four subsequent doses 12 μg/kg at the same intervals as the nanoparticles (Day 8, 11, 14 and 17).

B1: recombinant mIL-12: recombinant mIL-12 protein (PeproTech) administered subcutaneously (protein, UniProt P43431 23-215; P43432 23-335, looked up)
Interleukin-12 subunit alpha: RVIPVSGPARCLSQSRNLLKTTDDMVKTAREKLKHYSCTAEDIDHEDITRDQTSTLKTCLPLELHKNESCLATRETSSTTRGSCLPPQKTSLMMTLCLGSIYEDLKMYQTEFQAINAALQNHNHQQIILDKGMLVAIDELMQSLNHNGETLRQKPPVGEADPYRVKMKLCILLHAFSTRVVTINRVMGYLSSA
Interleukin-12 subunit beta: MWELEKDVYVVEVDWTPDAPGETVNLTCDTPEEDDITWTSDQRHGVIGSGKTLTITVKEFLDAGQYTCHKGGETLSHSHLLLHKKENGIWSTEILKNFKNKTFLKCEAPNYSGRFTCSWLVQRNMDLKFNIKSSSSSPDSRAVTCGMASLSAEKVTLDQRDYEKYSVSCQEDVTCPTAEETLPIELALEARQQNKYENYSTSFFIRDIIKPDPPKNLQMKPLKNSQVEVSWEYPDSWSTPHSYFSLKFFVRIQRKKEKMKETEEGCNQKGAFLVEKTSTEVQCKGGNVCVQAQDRYYNSSCSKWACVPCRVRS
Log-rank test: p≤0.01 for formulations of PEG-mIL12, p≤0.05 for recombinant mIL-12, Trehalose 22.0 days
  Median survival time compared with Trehalose control: significantly longer
Study Day 19
  tumor growth by luminescence readings compared with 9.5% Trehalose control: significant (p≤0.05) inhibition of tumor growth
Nanoparticles i.v. 2 mg/kg Days 5, 8, 11, 14, 17 (N/P=6: 1 mg/kg Day 8), recombinant mIL-12 subcutaneously 4 μg/kg Day 5 then 12 μg/kg
  Median survival time: 25.0 days
